# PMC5440646, “T Cell Costimulation by CD6 Is Dependent on Bivalent Binding of a GADS/SLP-76 Complex” (Molecular and Cellular Biology, 2017)
# B1: human CD6 fused to EGFP [human] / SH2 domain-containing leukocyte molecule of 76 kDa (SLP-76), endogenous [human (endogenous in Jurkat)] (parent)
# chain 1: MALRNVPFRSEVLGWDPDSLADYFKKLNYKDCEKAVKKYHIDGARFLNLTENDIQKFPKLRVPILSKLSQEINKNEERRSIFTRKPQVPRFPEETESHEEDNGGWSSFEEDDYESPNDDQDGEDDGDYESPNEEEEAPVEDDADYEPPPSNDEEALQNSILPAKPFPNSNSMYIDRPPSGKTPQQPPVPPQRPMAALPPPPAGRNHSPLPPPQTNHEEPSRSRNHKTAKLPAPSIDRSTKPPLDRSLAPFDREPFTLGKKPPFSDKPSIPAGRSLGEHLPKIQKPPLPPTTERHERSSPLPGKKPPVPKHGWGPDRRENDEDDVHQRPLPQPALLPMSSNTFPSRSTKPSPMNPLPSSHMPGAFSESNSSFPQSASLPPYFSQGPSNRPPIRAEGRNFPLPLPNKPRPPSPAEEENSLNEEWYVSYITRPEAEAALRKINQDGTFLVRDSSKKTTTNPYVLMVLYKDKVYNIQIRYQKESQVYLLGTGLRGKEDFLSVSDIIDYFRKMPLLLIDGKNRGSRYQCTLTHAAGYP
# chain 2: HPSPAPPDQLNTSSAESELWEPGERLPVRLTNGSSSCSGTVEVRLEASWEPACGALWDSRAAEAVCRALGCGGAEAASQLAPPTPELPPPPAAGNTSVAANATLAGAPALLCSGAEWRLCEVVEHACRSDGRRARVTCAENRALRLVDGGGACAGRVEMLEHGEWGSVCDDTWDLEDAHVVCRQLGCGWAVQALPGLHFTPGRGPIHRDQVNCSGAEAYLWDCPGLPGQHYCGHKEDAGAVCSEHQSWRLTGGADRCEGQVEVHFRGVWNTVCDSEWYPSEAKVLCQSLGCGTAVERPKGLPHSLSGRMYYSCNGEELTLSNCSWRFNNSNLCSQSLAARVLCSASRSLHNLSTPEVPASVQTVTIESSVTVKIENKESRELMLLIPSIVLGILLLGSLIFIAFILLRIKGKYALPVMVNHQHLPTTIPAGSNSYQPVPITIPKEVFMLPIQVQAPPPEDSDSGSDSDYEHYDFSAQPPVALTTFYNSQRHRVTDEEVQQSRFQMPPLEEGLEELHASHIPTANPGHCITDPPSLGPQYHPRSNSESSTSSGEDYCNSPKSKLPPWNPQVFSSERSSFLEQPPNLELAGTQPAFSAGPPADDSSSTSSGEWYQNFQPPPQPPSEEQFGCPGSPSPQPDSTDNDDYDDISAA
# B2: human CD6 fused to EGFP [human] / GRB2-related adaptor downstream of Shc (GADS), endogenous [human (endogenous in Jurkat)] (parent)
# chain 1: MEAVAKFDFTASGEDELSFHTGDVLKILSNQEEWFKAELGSQEGYVPKNFIDIQFPKWFHEGLSRHQAENLLMGKEVGFFIIRASQSSPGDFSISVRHEDDVQHFKVMRDNKGNYFLWTEKFPSLNKLVDYYRTNSISRQKQIFLRDRTREDQGHRGNSLDRRSQGGPHLSGAVGEEIRPSMNRKLSDHPPTLPLQQHQHQPQPPQYAPAPQQLQQPPQQRYLQHHHFHQERRGGSLDINDGHCGTGLGSEMNAALMHRRHTDPVQLQAAGRVRWARALYDFEALEDDELGFHSGEVVEVLDSSNPSWWTGRLHNKLGLFPANYVAPMTR
# chain 2: B1 chain 2
# B3: human CD6 fused to EGFP [human] / T cell-specific adaptor protein (TSAd), endogenous [human (endogenous in Jurkat)] (parent)
# chain 1: not shown
# chain 2: B1 chain 2
# Variants of: B1
# Assay: co-immunoprecipitation (anti-CD6 IP), Western blot densitometry
# Conditions: with SH2 domain-containing leukocyte molecule of 76 kDa (SLP-76), Jurkat cells, 3 × 10^6 cells per sample, pervanadate treated, CD6 MAb (MEM-98), three experiments, read off a plot
row,response [AU],Variant
1,0.5,chain 2 Y612F Y645F
2,6.4,chain 2 Y612F
3,1.5,chain 2 Y645F

# Variants of: B2
# Assay: as above
# Conditions: with GRB2-related adaptor downstream of Shc (GADS), Jurkat cells, 3 × 10^6 cells per sample, pervanadate treated, CD6 MAb (MEM-98), three experiments, read off a plot
row,response [AU],Variant
1,9.1,chain 2 Y645F
2,0.9,chain 2 Y612F Y645F
3,10,chain 2 Y612F

# Variants of: B3
# Assay: as above
# Conditions: with T cell-specific adaptor protein (TSAd), Jurkat cells, 3 × 10^6 cells per sample, pervanadate treated, CD6 MAb (MEM-98), three experiments, read off a plot
row,response [AU],Variant
1,5.2,chain 2 Y645F
2,8.8,chain 2 Y612F
3,4.4,chain 2 Y612F Y645F
